Laboratory results taken from US20170306037A1 (Novartis, published 2017).
Positions count from the first letter of the chain named.

Columns and labels:
[1] = biological target: T1, human GITR expressed on cells (human, UniProt Q9Y5U5 27-241); experiment: cell-based or functional assay
T1 sequence: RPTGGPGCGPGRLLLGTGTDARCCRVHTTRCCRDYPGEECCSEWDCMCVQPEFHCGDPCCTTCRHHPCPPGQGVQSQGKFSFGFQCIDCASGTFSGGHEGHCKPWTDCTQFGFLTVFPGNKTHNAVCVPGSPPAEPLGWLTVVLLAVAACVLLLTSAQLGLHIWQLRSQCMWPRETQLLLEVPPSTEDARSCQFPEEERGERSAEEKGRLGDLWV

[2] = biological target: T1, human GITR expressed on cells; experiment: FACS competition on hGITR stable HEK293 cells: ligand titrated first, then 4 nM MAB7 as competitor, PE anti-human detection
Protocol: The ability of MAB to block ligand binding was assessed using HEK293 NFκB reporter parental cells and hGITR stable cells were used in competition binding assays and FACS analysis. Briefly, harvested cells were plated 1×10⁶ cells per mL, 100 μL per well to a 96 well round bottom FACS plate (Corning), then resuspended in 200 μL of cold FACS buffer (1×PBS+1% FBS-HI+0.1% sodium azide) per well. […] Plates were incubated for 1 hour on ice protected from light, cells washed, then prepared 4 nM isotype control or MAB solutions were prepared and added to appropriate wells at 100 μL per well and plates were incubated for 1 hour on ice protected from light, cells washed, then PE-conjugated goat-anti-human detection antibody (Jackson ImmunoResearch) prepared at 1:100 dilution in FACS buffer was added at 100 μL per well and plates were incubated for 30 minutes on ice protected from light. Cells were washed in FACS buffer then cells were fixed with 100 μL per well of BD CytoFix (BD Biosciences) and incubated for further 15 minutes on ice protected from light.

[3] = biological target: T2, Recombinant human GITR and human Fc fusion protein (hGITR-hFc) (human, UniProt Q9Y5U5 26-162, limits assumed, biotinylated in the ForteBio Octet assays (sites not given)); experiment: ForteBio Octet QK, streptavidin biosensors coated with biotinylated hGITR-hFc
T2 construct: also called biotinylated hGITR-hFc; not shown: human Fc
T2 sequence: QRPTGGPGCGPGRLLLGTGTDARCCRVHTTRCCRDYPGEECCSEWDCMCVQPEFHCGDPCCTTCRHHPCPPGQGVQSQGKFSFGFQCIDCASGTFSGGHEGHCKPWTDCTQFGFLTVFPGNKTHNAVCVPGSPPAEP
Source text: Human germline residues incorporated into the optimized reference MAB1opFab in FR1 and FR3 are those specified by the PCR primers used to amplify the human V-segment repertoire and thus are present in all members of the Humaneered® Antibody V-region libraries. The optimized reference Fab is constructed to assess whether or not any of the changes to human germline alter the properties of Fab binding.

[4] = biological target: T3, human GITR extracellular domain (hGITR ECD) (human, UniProt Q9Y5U5 26-162); experiment: ELISA on coated GITR ECD
T3 construct: also called human GITR ECD
T3 sequence: T2 sequence
Protocol: (§1) The plate was blocked with a solution of 1% BSA in PBS for one hour at room temperature and then rinsed three times with PBST. The MAB was then diluted to 0.5 μg/mL or 1 μg/mL in PBS and 20 μL was added to each well. The plate was incubated for 1 hour at room temperature and then washed three times with PBST. […] The plate was incubated for 1 hour at room temperature, and then washed six times with PBST. 25 μL of SureBlue TMB (KPL 52-00-02) substrate was added to each well and the plate was incubated for about 10 min at room temperature.

[5] = biological target: T4, mouse GITR extracellular domain (mouse, UniProt O35714 20-153); experiment: ELISA on coated GITR ECD
T4 construct: extracellular domain; also called murine GITR; rodent GITR
T4 sequence (looked up): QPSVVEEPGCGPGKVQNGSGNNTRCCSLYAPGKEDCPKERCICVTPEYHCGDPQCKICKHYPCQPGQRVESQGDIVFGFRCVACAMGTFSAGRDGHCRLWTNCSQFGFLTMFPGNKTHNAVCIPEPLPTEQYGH
Protocol: as §1

[6] = biological target: T2, Recombinant human GITR and human Fc …; experiment: ForteBio Octet, Fab on human GITR (biotinylated hGITR-hFc sensors per paragraph 356); experiment b
[7] = biological target: T2, Recombinant human GITR and human Fc …; experiment: ForteBio Octet, Fab on human GITR (biotinylated hGITR-hFc sensors per paragraph 356); experiment a
[8] = biological target: T5, human GITR (hGITR), form not stated (human, UniProt Q9Y5U5 26-162, limits assumed); experiment: Biacore (SPR), IgG
T5 construct: the construct is not described
T5 sequence: T2 sequence

[9] = biological target: cyno GITR (cGITR), form not stated (cynomolgus monkey); experiment: Biacore (SPR), IgG
[10] = biological target: T2, Recombinant human GITR and human Fc …; experiment: ForteBio Octet, Fab on human GITR (biotinylated hGITR-hFc sensors per paragraph 356); experiment c

B1: recombinant human GITR ligand (GITR-L) (ligand, UniProt Q9UNG2 52-177, looked up)
chain: ETAKEPCMAKFGPLPSKWQMASSEPPCVNKVSDWKLEILQNGLYLIYGQVAPNANYNDVAPFEVRLYKNKDMIQTLTNKSKIQNVGGTYELHVGDTIDLIFNSEHQVLKNNTYWGIILLANPQFIS
For B1, the “EC50, NFκB-luciferase reporter in 293 cells overexpressing human GITR” value [1] was roughly 65 nM and the “IC50 (read off the curve)” value [2] was ~0.2 molar ratio of Human GITR Ligand to MAB7 (MAB7 at 4 nM).

B2: MAB1rFab (reference Fab of MAB1) (Fab, V domains shown)
VH: QVQLKESGPGLVAPSQSLSITCTVSGFSLRSYGVDWVRQPPGKGLEWLGVIWGGGGTNYNSALMAKLSISKDKSKSQVFLKMNSLQTDDTAMYYCAKHAYGHDGGFAMDYWGQGTSVTVSS
VL: EIVMTQSPKSMSMSVGERVTLSCKASENVDTFVSWYQQKPDHSPKLLIYGASNRYTGVPDRFTGSGSATDFTLTISSVQAEDLADYHCGQSYSYPFTFGSGTKLEIK
B2: binds [3].

B3: MAB1 (murine monoclonal GITR agonist antibody) (antibody, V domains shown)
VH: B2 VH
VL: B2 VL with E1N
notes: Mouse hybridoma antibody; also called parental mouse antibody MAB1; MAB1 parental Ab
B3: binds [4]; no binding [5].

B4: MAB6 (IgG1 kappa) (antibody, V domains shown)
VH: EVQLVESGGGLVQSGGSLRLSCAASGFSLSSYGVDWVRQAPGKGLEWLGVIWGGGGTYYTSSLMARFTISRDNSKNTLYLQMNSLRAEDTAVYYCAKHAYGHDGGFAMDYWGQGTLVTVSS
VL: EIVMTQSPATLSVSPGERATLSCRASESVSSNVAWYQQRPGQAPRLLIYGASNRATGIPARFSGSGSGTDFTLTISRLEPEDFAVYYCGQSYSYPFTFGQGTKLEIKR
B4: no binding (tested: 0.5 µg/mL or 1 µg/mL) [5].

B5: MAB5 Fab (human full-chain Fab) (Fab, V domains shown)
VH: B4 VH with A65G
VL: EIVMTQSPATLSVSPGERATLSCRASESVSSNVAWYQQRPGQAPRLLIYGASNRATGIPARFSGSGSGTDFTLTISRLEPEDFAVYYCGQSYSYPFTFGQGTKLEIK
notes: human kappa constant; also called MAB5(b)
B5 gave a Kd [6] of 3.74 nM.

B6: MAB2 Fab (human full-chain Fab) (Fab, V domains shown)
VH: B4 VH with E1Q, S14P, L48V, T60A, L63V
VL: B5 VL
notes: human kappa constant; purified on Ni-NTA; also called MAB2(a)
In the case of B6, the Kd [7] is reported as 6.84 nM.

B7: MAB4 Fab (human full-chain Fab) (Fab, V domains shown)
VH: B4 VH with L48V, T60A, A65G
VL: B5 VL
notes: human kappa constant; also called MAB4(b)
B7 gave a Kd [6] of 2.43 nM.

B8: MAB3 Fab (human full-chain Fab) (Fab, V domains shown)
VH: B4 VH with E1Q, S14P, S61A, A65G
VL: B5 VL with E27Q, V33L, R39K, A60D
notes: human kappa constant; also called MAB3(a)
B8 gave a Kd [7] of 2.98 nM.

B9: MAB7 (IgG1 kappa) (antibody, V domains shown)
VH: B4 VH with L48V, T60A, A65G, K97R
VL: B4 VL
notes: MAB4 with the glycation site KH changed to RH
B9 was tested, and the Kd [8] was 4.29 nM, the Kd [9] was 3.67 nM and the binding result [5] was “no binding (tested: not on the sheet; paragraph 336: 0.5 or 1 µg/mL)”.

B10: MAB8 (IgG1 kappa) (antibody, V domains shown)
VH: B4 VH with L48V, T60A, A65G, K97R, H98N
VL: B4 VL
notes: MAB4 with the glycation site KH changed to RN
B10: binds [4]; no binding (tested: 0.5 µg/mL or 1 µg/mL) [5].

B11: MAB6 Fab (human full-chain Fab) (Fab, V domains shown)
VH: B4 VH
VL: B5 VL
notes: human kappa constant; also called MAB6(c)
In the case of B11, the Kd [10] is reported as 5.94 nM.
